Reference: US20140227287A1

Biological target: human βNGF (R&D Systems, Inc.) (human) (UniProt P01138)
Assay: dynamic light scattering of antibody incubated with human βNGF

human βNGF (R&D Systems, Inc.) (human), sequence (P01138 122-241 limits assumed): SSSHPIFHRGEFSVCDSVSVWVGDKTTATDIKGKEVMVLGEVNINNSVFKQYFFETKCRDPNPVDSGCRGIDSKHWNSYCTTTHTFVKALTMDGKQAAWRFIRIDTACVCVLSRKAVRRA

## Control IgG (antibody)
  Particle size Average (d · nm), IgG + rhNGF: 12.6 nm·days
  Particle size Peak (d · nm), IgG + rhNGF: 11.7 nm·days
